From publication PMC2757159 come the findings set out here.

For assay [1], the target named is yeast copper chaperone for SOD1 (yeast). Put plainly: native gel or EMSA.
Assay [2] concerns the target human copper chaperone for SOD1 (human). Put plainly: native gel or EMSA. (In general: In EMSA bound probe runs differently from free probe, usually more slowly.)
The target is the same in assay [3]. Put plainly: SEC. (In gel filtration, larger molecules generally elute earlier.)
For assay [4] the target is unchanged. Put plainly: SEC. This is another data set of the same source.

Take “human H46R/H48Q copper-zinc superoxide dismutase (SOD1) double mutant (from UniProt P00441 1-154) (enzyme)”: the stoichiometry N in assay [1] and in assay [2] was 1 SOD1:CCS in each case.

“human copper chaperone for SOD1 (natural protein)”: the stoichiometry N in assay [3] and in assay [4] was 4 in each case.
